Data on one protein can be found in PMC11741385 (bioRxiv, 2025).

The data set deals with the molecule itself. The data set can be described thus: cryo-EM structure.

B1: Candida albicans Pra1 (recombinant, full-length excluding the signal peptide) (natural protein, UniProt P87020 16-299, looked up)
chain: APVTVTRFVDASPTGYDWRADWVKGFPIDSSCNATQYNQLSTGLQEAQLLAEHARDHTLRFGSKSPFFRKYFGNETASAEVVGHFDNVVGADKSSILFLCDDLDDKCKNDGWAGYWRGSNHSDQTIICDLSFVTRRYLTQLCSSGYTVSKSKTNIFWAGDLLHRFWHLKSIGQLVIEHYADTYEEVLELAQENSTYAVRNSNSLIYYALDVYAYDVTIPGEGCNGDGTSYKKSDFSSFEDSDSGSDSGASSTASSSHQHTDSNPSATTDANSHCHTHADGEVHC
modifications: N-linked glycosylation at Asn48, Asn89, Asn135 and Asn208; three intramolecular disulphide bonds
Regarding B1, the “stoichiometry N” value was determined as 6.
